Results as given in patent US20240270828A1 (UAB RESEARCH FOUNDATION, published 2024).

Tests used:
[1] = molecular target: T1, SARS-CoV-2 S1+S2 (40589-V08B1, Sino Biological) (SARS-CoV-2, UniProt P0DTC2 16-1213); assay: ELISA on coated protein, anti-human IgG-HRP; AUC of the OD
[2] = molecular target: T2, SARS-CoV-2 S1 (40591-V08H3, Sino Biological) (SARS-CoV-2, UniProt P0DTC2 16-685); assay: as above
T2 construct: domain: S1

[3] = molecular target: T1, SARS-CoV-2 S1+S2 (40589-V08B1, Sino …); assay: ELISA, hmAb at 10 and 1 ug/ml in duplicate; AUC
[4] = molecular target: T2, SARS-CoV-2 S1 (40591-V08H3, Sino …); assay: ELISA, hmAb at 10 and 1 ug/ml in duplicate; AUC
[5] = molecular target: T3, SARS-CoV-2 S2 (40590-V08B, Sino Biological) (SARS-CoV-2, UniProt P0DTC2 686-1213); assay: ELISA on coated protein, anti-human IgG-HRP; AUC of the OD
T3 construct: domain: S2

[6] = molecular target: Spike of SARS-CoV (Urbani) on infected Vero E6 cells and live virus (SARS-CoV, UniProt P59594 14-1255); assay: immunofluorescence on infected Vero E6 cells, 1 µg/ml
[7] = molecular target: T4, Spike of MERS-CoV on infected Vero E6 cells and live virus (MERS-CoV, UniProt K9N5Q8 18-1353); assay: as above
T4 sequence: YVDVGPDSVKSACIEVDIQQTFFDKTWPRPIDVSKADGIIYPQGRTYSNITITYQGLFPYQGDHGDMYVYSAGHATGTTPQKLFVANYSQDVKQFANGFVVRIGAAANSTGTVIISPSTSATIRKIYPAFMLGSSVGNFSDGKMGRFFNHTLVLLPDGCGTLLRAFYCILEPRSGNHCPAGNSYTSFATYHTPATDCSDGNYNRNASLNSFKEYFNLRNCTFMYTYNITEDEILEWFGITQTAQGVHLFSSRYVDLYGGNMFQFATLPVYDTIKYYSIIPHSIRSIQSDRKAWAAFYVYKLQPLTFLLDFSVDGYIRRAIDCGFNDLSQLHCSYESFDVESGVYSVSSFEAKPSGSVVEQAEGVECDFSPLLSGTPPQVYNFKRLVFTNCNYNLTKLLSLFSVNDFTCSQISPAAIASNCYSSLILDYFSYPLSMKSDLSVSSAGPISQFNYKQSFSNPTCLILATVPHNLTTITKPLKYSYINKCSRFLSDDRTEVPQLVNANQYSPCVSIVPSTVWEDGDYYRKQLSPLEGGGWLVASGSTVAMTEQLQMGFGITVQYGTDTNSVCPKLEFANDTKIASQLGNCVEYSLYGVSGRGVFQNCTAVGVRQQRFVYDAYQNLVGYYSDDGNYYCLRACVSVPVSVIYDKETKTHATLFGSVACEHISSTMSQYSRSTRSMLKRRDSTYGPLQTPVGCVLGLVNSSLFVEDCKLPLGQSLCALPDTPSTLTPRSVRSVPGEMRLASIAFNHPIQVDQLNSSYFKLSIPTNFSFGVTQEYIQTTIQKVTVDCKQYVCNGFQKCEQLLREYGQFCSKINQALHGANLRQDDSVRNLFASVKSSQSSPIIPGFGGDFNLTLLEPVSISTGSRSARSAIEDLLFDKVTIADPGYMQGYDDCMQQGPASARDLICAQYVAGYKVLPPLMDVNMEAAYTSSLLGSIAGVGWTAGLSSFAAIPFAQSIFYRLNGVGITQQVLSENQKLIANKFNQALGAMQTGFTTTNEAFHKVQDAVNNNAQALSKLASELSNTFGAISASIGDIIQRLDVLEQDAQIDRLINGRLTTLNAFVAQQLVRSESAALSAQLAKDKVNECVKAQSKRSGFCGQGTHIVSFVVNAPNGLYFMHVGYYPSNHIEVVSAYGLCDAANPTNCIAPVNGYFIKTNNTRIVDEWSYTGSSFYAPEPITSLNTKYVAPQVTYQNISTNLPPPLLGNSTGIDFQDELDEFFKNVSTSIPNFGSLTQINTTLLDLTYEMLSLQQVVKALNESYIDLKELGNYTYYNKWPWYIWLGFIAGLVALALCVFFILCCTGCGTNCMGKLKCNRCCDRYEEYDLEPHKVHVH

[8] = molecular target: T3, SARS-CoV-2 S2 (40590-V08B, Sino …); assay: ELISA, hmAb at 10 and 1 ug/ml in duplicate; AUC
[9] = molecular target: Spike of live SARS-CoV-2 WT virus (SARS-CoV-2, UniProt P0DTC2 14-1273); assay: cell-based or functional assay

Binder	Binding AUC [1]	Binding AUC [2]	binding result [2]	Binding AUC [3]	Binding AUC [4]	Binding AUC [5]	binding result [6]	binding result [7]	Binding AUC [8]	binding result [4]	Neutralization IC50 (µg/ml), Live Virus WT [9]
1232D5 (antibody, V domains shown) VH: EVQLVESGGGVVQPGGSLRLSCAASGFTFSNYGMHWVRQAPSKGLEWVAFIRYDGTNKYYADSVKGRFTISRDNSKNTLYLQINSLRAEDTAVYYCAIIAVAGDVNPDYWGQGTLVTVSS VL: not shown	11.7	1.1	no binding	11.7	1.1						
1242F4 (antibody, V domains shown, Recombinant human IgG1) VH: EVQLVQSGAEVKKPGTSVKVSCKASGNTVADYYMHWVRQAPRQGLEWVGLINPSGSGTAYAQNFQGRVTLTRDTSTSTLYMELGSLGSEDTAIYYCARMDSSGTYDVWGQGTLVTVSS VL: EIVLTQSPGTLSLSPGERATLSCRASQSIRSGYLAWYQQKPGQAPRLLIRGASVKATGIPDRFSGSGSGTDFTLTISRLEPEDFVVYYCQHFASSPPRYTFGQGTKLEIK	27	1.3		27	1.3	28.5	binds	binds	28.5	no binding (tested: 10 ug/ml)	36.5 µg/mL
1246H7 (antibody, V domains shown) VH: QVQLQQSGPGLMKPSETLSLTCTVSGGSISSSSYYWGWIRQPPGKGLEWIGSIYYSGATYYNPSLKSRVTISVDTSKNQLSLKLSSVTAADTAVYYCVNRYYDYVWGSWGVDCWGQGTLVTVSS VL: QAGLTQPRSVSGSPGQSVTISCTGTSSDVGGYNYVSWYQQHPGKAPKLMIYDVNKRPSGVPDRFSGSKSGNTASLTISGLQAEDEADYFCCSYAGSYTYWVFGGGTKLTVL	5	1.7	no binding	5	1.7	4.8			4.8		
1242D11 (antibody, V domains shown) VH: QVQLVQSGGGLVQPGGSLRLSCAVSGFTFSSYWMSWVRQAPGKGLEWVANIKQDGSEKYYVDSVKGRFTISRDNAKNSLFLQMNSLRAEDTAVYYCAREAVGYYYDSRGYHYSWYFDLWGRGTLVTVSS VL: EIVLTQSPGTLSLSPGERATLSCRASQSVSSSYLVWYQQKPGQAPRLLIFGASSRATGIPDRFSGSGSGTDFTLTISSLEPEDFAVYYCQHYGSSPPMYTFGQGTKLEIK	21.4	2.9	no binding	21.4	2.9	24.4			24.4		
1242G6 (antibody, V domains shown, Recombinant human IgG1) VH: QVQLVQSGGGVVQPGTSVRLSCAASGFTFSDHGMHWVRQAPGKGLEWVAVISFEGRNKFFADSVKGRSTISRDNSKNTVSMQVDNVRPEDTAVYYCAREHFDGSGSDYIGTRFFDYWGRGALVTVSS VL: DIQLTQSPSFLSASVGDRVTITCRASQGISHYLTWYQQKPGKAPKLLIYRTSTLQSGVPSRFSGSGSGTVFTLTISSLQPEDLATYYCQHLDNFPTITFGQGTRLDLK	24.3	3.8	no binding	24.3	3.8	22.6			22.6		> 50 µg/mL
1242F11 (antibody, V domains shown) VH: QVQLVQSGGGLVQPGGSLRLSCAASGFTFSSYWMTWVRQAPGKGLEWVANIKQDGREIYYVDSVKGRFTLSRDNAKNSLYLQMNSLRAEDTAVFYCARIRVFVSADSEGYHYYYGLDVWGQGTTVTVSP VL: not shown	24.1	1.9									
1246C2 (antibody, V domains shown) VH: QVQLVQSGGGLVKPGGSLRLSCAASGFTFKTHNMIWVRQAPGKVLEWVSSISGSSSYRYYGDSMKGRLTISRDNAKNSLYLEMNSLRAEDTAVYYCARDKGVGPTMVWYFDLWGRGTLVTVSS VL: EIVLTQSPATLSLSPGDRATLSCRASQSLSISLAWYQQKPGQAPRLLIYDASIRATGVPPRFSGSGSGTDFTLTISSLEPEDFAVYYCQQWSGWPPRLTFGGGTKVEIK	18	4.2		18	4.2	17.4			17.4	no binding (tested: 10 ug/ml)	> 50 µg/mL
1235C10 (antibody, V domains shown, Recombinant human IgG1) VH: EVQLVESGGGLVQPGRSLRLSCTASGFTFGDHSMSWVRQAPGKGLEWVGFIRSKAYGGTTEYAASVKGRFTISRDDSKSIAYLQMNSLKIEDTAVYYCTRGLTGLDYWGQGMLVTVSS VL: not shown	25.2	0.8		25.2	0.8	26.9			26.9	no binding (tested: 10 ug/ml)	10.4 µg/mL
1212C2 (antibody, V domains shown) VH: QVQLVQSGAEVKKPGASVKVSCKASGYIFTDYFIHWVRQAPGQGLEWMGWINPNSGGTKYAQKFQGRVTMTRDTSISTVYMELSRLRSDDTAVHYCTRDLPLRTLYDSYGFDSWGQGTLVTVSS VL: LPVLTQPASVSGSPGQSITISCTGTSSDVGSYNLVSWYQQHPGKAPKLMIYDVSKRPSGVSNRFSGSKSGNTASLTISGLQAEDEADYYCCSYAGNSIVFFGGGTKLTVL											0.003 µg/mL
1250E10 (antibody, V domains shown, Recombinant human IgG1) VH: EVQLVQSGAEVKKPGASVKFSCKASGFRVDGSYMHWVRQAPRGGLEWMGLINPSGSGTAYAQIFQGRVTLTRDTSTSTLYMELGSLGSEDTAMYYCARMDRSGSYDLWGQGTLVIVSS VL: DIVLTQSPGNLSLSPGERATLSCRASESIRSAYIAWYQQKPGQAPRLLMRGASVRAAGIPDRFSGSGSGTDYALTISRLEPEDFAVYYCQHFASSPPRYTFGQGTKLEIK	26	2.9		26	2.9	27.9			27.9	no binding (tested: 10 ug/ml)	> 50 µg/mL
1250D2 (antibody, V domains shown, Recombinant human IgG1) VH: QVQLVQSGAEVKKPGASMKVSCKASGFTFSDYYMHWVRQAPRQGLEWMGLINPSGSGTAYAQNFQGRVTLTRDTSTSTLYMEMGSLTSDDTAVYYCARMDSSGSYDHWGQGTLVTVSS VL: EIVLTQSPGTLSLSPGDRATLSCRASQTIRISYLAWYQQKPGQAPRLLVYGPSIRATGIPDRFSASGSGTDFTLTISRLEPEDFAVYYCQHYGSSPPRYTFGQGTKLEIK	25.3	1.7		25.3	1.7	28.2	binds	binds	28.2	no binding (tested: 10 ug/ml)	2.36 µg/mL
